Source: the supplement of paper PMC10567573

B1: TRIM14 (parent)
chain: YARTPTLDPDTMHARLRLSADRLT
B2: STK38L (parent)
chain: FCIDSENRIGNSGVEEIKGHPFFE

Variants of: B1
Assay: protein stability index of a GFP-peptide fusion (GPS, HEK-293T) (PSI 1-6); higher = more stable
Settings: c terminus: a fixed tail appended
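Note: lentivirally expressed fusions sorted by FACS into six bins by GFP to DsRed ratio, PSI derived from sequencing read proportions per bin multiplied by bin number.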

Protein stability index, by site and new letter:
P9: E 2.56 | D 2.98 | M 3.07 | V 2.41 | R 2.96 | I 2.3 | F 2.21 | T 2.58 | W 2.17 | H 2.92 | Y 2.22 | A 2.82 | C 2.1 | N 3.11 | Q 2.56 | L 2.1 | G 3.11 | K 3.15 | S 2.04
D8: W 2.08 | P 2.41 | S 2.5 | R 1.98 | T 2.45 | V 2.78 | Q 2.52 | N 2.58 | Y 1.8
M12: K 2.72 | P 3.2 | L 2.43 | Q 2.68 | R 3.07 | N 3.63 | G 2.89 | T 2.74 | E 3.6 | A 2.56 | I 2.62 | Y 2.01 | D 3.94 | H 3.13 | V 2.06 | F 2.01 | S 3.21 | C 2.34
R22: H 2.97 | K 2.33 | A 2.57 | W 2.01 | L 2.68 | C 2.76 | T 2.62 | D 3.09 | Y 2.62 | G 2.76 | Q 2.59 | S 2.81 | N 2.77 | V 2.26 | I 2.74 | E 3.31 | F 2.52 | P 2.31 | M 2.16
A20: P 2.6 | Y 2.18 | T 2.5 | G 2.37 | S 3.14 | K 3.38 | I 2.85 | M 2.35 | R 1.49 | H 2.56 | F 1.61 | W 3.31 | E 3.03 | Q 1.84 | V 1.96 | C 2.14 | L 2.04 | D 2.83 | N 2.55
L18: C 2.62 | Y 2.93 | F 2.04 | R 2.81 | P 3.34 | E 3.06 | K 2.51 | T 2.42 | Q 2.65 | H 2.82 | S 2.87 | D 3.38 | G 2.06 | V 2.62 | M 2.65 | I 2.78 | W 2.18 | A 3.6 | N 3.3
R17: K 2.58 | C 2.25 | E 3.04 | V 2.31 | Q 2.56 | Y 2.27 | T 2.91 | H 2.73 | I 2.81 | W 1.42 | M 2.42 | S 3.01 | F 2.02 | G 3.01 | P 2.84 | L 2.29 | D 3.18 | A 2.89 | N 3.2
R15: C 1.85 | T 3.03 | G 3.36 | N 2.61 | F 1.93 | S 3.53 | P 2.83 | D 2.8 | M 2.73 | I 2.87 | W 1.95 | Q 2.43 | L 2.29 | V 2.04 | A 2.81 | E 3.25 | Y 2.26 | H 2.73 | K 2.45
L23: Q 3.12 | T 2.55 | N 2.87 | R 3.21 | E 4.03 | W 2.03 | F 2.13 | S 2.73 | A 2.96 | D 3.38 | Y 2.44 | H 3.21 | G 2.58 | C 2.51 | M 3.06 | I 2.62 | K 3.43 | P 2.67
A14: G 3.26 | V 2.53 | C 2.62 | Y 1.98 | F 1.96 | E 2.67 | Q 2.59 | H 2.04 | W 2.7 | N 3.08 | L 2.81 | R 2.13 | S 3.02 | M 2.36 | I 2.13 | K 1.83 | P 2.45 | T 2.61 | D 3.25
D21: W 1.62 | R 2.02 | V 1.52 | M 1.96 | S 3.05 | C 2.77 | A 2.43 | Y 1.6 | P 2.06 | L 1.8 | E 2.53 | G 2.08 | N 2.54 | I 1.23 | T 2.61 | H 3.32 | Q 2.91 | F 2.34 | K 2.06
T24: G 3.09 | V 2.21 | P 2.17 | H 2.39 | C 2.51 | K 3.2 | Q 2.67 | Y 2.08 | D 3.87 | I 2.84 | N 2.92 | E 3.02 | A 2.82 | W 1.73 | S 2.54 | F 1.65 | M 2.48 | R 3.13 | L 1.76
T11: W 2.15 | S 2.66 | R 3.65 | F 2.04 | H 2.12 | E 3.46 | Y 2.9 | M 2.12 | D 3.07 | V 2.36 | Q 2.81 | N 2.45 | I 2.26 | K 3.29 | P 2.79 | G 2.39 | L 2.27 | A 2.68 | C 2.94
S19: Q 2.72 | M 2.06 | Y 1.89 | N 3.01 | K 2.29 | T 2.77 | R 2.88 | H 2.26 | P 3.06 | D 2.59 | A 2.5 | W 1.77 | V 3.62 | E 2.93 | F 1.99 | G 2.21 | I 2.79 | L 2.33 | C 2.42
H13: F 2.63 | M 2.69 | R 2.87 | W 2.51 | P 3.06 | K 2.15 | C 2.27 | S 3.17 | V 2.23 | A 2.62 | L 2.61 | T 2.77 | I 2.69 | D 3.77 | Y 2.3 | N 2.75 | E 2.71 | Q 2.84
D10: M 2.4 | E 2.66 | A 1.98 | V 2.78 | Y 2.34 | S 3.77 | C 2.22 | P 2.31 | Q 2.56 | G 2.48 | F 1.64 | I 2 | K 3.05 | N 3.23 | T 2.66 | W 3.31 | L 2.05 | H 2.29
L16: F 2.84 | I 2.56 | Q 2.93 | D 2.77 | P 2.94 | H 3.27 | S 3.52 | W 2.56 | N 2.57 | E 3.5 | R 3.27 | K 3.01 | T 3.02 | M 2.67 | V 2.49 | Y 2.19 | C 1.93

Variants of: B2
Assay: as above
Settings: c terminus: a fixed tail appended

Protein stability index, by site and new letter:
E16: K 1.98
N11: H 2.38
G10: C 2.32
G13: F 2.95 | D 2.55 | K 2.44
E15: Q 1.57
V14: L 1.54
H20: G 3.09
F1: E 4.61
N7: D 2.43 | E 2.87
I17: E 3.47 | M 2.79
P21: K 2.84
I9: P 3.17
R8: T 3.15 | W 2.87 | Q 2.83
D4: A 2.09
E24: D 2.24 | L 4
K18: N 2.8 | E 3.07 | L 2.89
I3: A 2.04 | L 2.57
